In US20170145104A1:

Key:
[1] = target: human GITR, membrane bound (on activated human T cells and on 3A9-hGITR cells) (human) (UniProt Q9Y5U5); experiment: FACS: recombinant hGITR-L trimer titrated on PHA-activated human T cells, CD4 gate, PE anti-HA tag; direct binding curve; the sheet's table heads the row 'IC50', the text calls it EC50; unit from the axis
[2] = target: human GITR, membrane bound (on activated human T cells and on 3A9-hGITR cells) (human) (UniProt Q9Y5U5); experiment: FACS, PHA-activated human CD4+ and CD8+ T cells, PE anti-HA tag
[3] = target: human GITR, membrane bound (on activated human T cells and on 3A9-hGITR cells) (human) (UniProt Q9Y5U5); experiment: FACS competition on activated human CD4+ T cells: GITRL pre-bound and titrated, then 28F3.hIgG1 (m11) at a fixed 0.5 ug/mL, detected with anti-human IgG Fc-PE; partial block; unit from the axis
[4] = target: human GITR, membrane bound (on activated human T cells and on 3A9-hGITR cells) (human) (UniProt Q9Y5U5); experiment: FACS: recombinant hGITR-L trimer titrated on PHA-activated human T cells, CD8 gate, PE anti-HA tag; direct binding curve; the sheet's table heads the row 'IC50', the text calls it EC50; unit from the axis
[5] = target: human GITR, membrane bound (on activated human T cells and on 3A9-hGITR cells) (human) (UniProt Q9Y5U5); experiment: FACS competition on PHA-activated human T cells, GITR-L pre-bound, competitor 28F3-hIgG1 at 0.5 ug/ml; inhibition partial
[6] = target: human GITR, membrane bound (on activated human T cells and on 3A9-hGITR cells) (human) (UniProt Q9Y5U5); experiment: FACS on activated T cells, GMFI (PE); EC50 table under the plot; unit from the axis; fit of a flat control curve, see non_binding

Sequence of human GITR, membrane bound (on activated human T cells and on 3A9-hGITR cells) (human) (Q9Y5U5 26-241 limits assumed, form in doubt): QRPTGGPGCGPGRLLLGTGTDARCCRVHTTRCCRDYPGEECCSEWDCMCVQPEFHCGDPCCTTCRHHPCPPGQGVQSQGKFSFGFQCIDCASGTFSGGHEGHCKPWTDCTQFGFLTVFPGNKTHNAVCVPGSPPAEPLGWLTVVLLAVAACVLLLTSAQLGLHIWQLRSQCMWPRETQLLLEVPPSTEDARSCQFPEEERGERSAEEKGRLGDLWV

Row | EC50 [1] [µg/mL] | EC50 [2] [µg/mL] | IC50 [3] [ng/mL] | EC50 [4] [µg/mL] | IC50 [5] [ng/mL] | EC50 [6] [nM] | Substance
1 | 0.016 | 0.016 | 2.44 | 0.0163 | 2.4 |  | recombinant human GITR ligand trimer (R&D Systems 6987-GL)
2 |  |  |  |  |  | 132 | unrelated hIgG1 (antibody)
3 |  |  |  |  |  | 6.72 | unrelated hIgG2 (antibody)
